Measured values published in patent US8748390B2, “Immunogenic epitopes of NGEP antigen” (The United States of America, as represented by the …, priority 2009, dated 2014).

Columns and labels:
HLA-A2 molecules [1] = molecular target: T1, HLA-A2 molecules (Homo sapiens, UniProt P04439, D140Y/D185E/D98H/E176V/E277Q/G131W/G231S/I119V/I121R/I166T/I218V/L300P/L318F/N151K/N90K/P208A/P217A/Q86G/Q94H/R138H/R169H/T345S); assay: T2 cell-binding assay: regulation of HLA-A2 expression on T2 cells by flow cytometry; details: for T2 Binding: peptide 25 μg/mL, T2 cells, flow cytometry
T1 construct: endogenous in cells; host or cells: T2 cells
Excerpt: FIG. 1B is a graph depicting the binding of the P703 and P215 peptides to HLA-A2 molecules at various peptide concentrations. Peptide concentration (μg/mL) is on the x-axis, and mean fluorescence intensity (MFI) is on the y-axis. The positive control peptide is MUC-1, and the negative control peptide is CAP-7.
The T2 binding values are expressed in mean fluorescence intensity. The values in parentheses are fold increases as compared with the negative control (CAP-7 peptide).

HLA-A2 molecules [2] = molecular target: T1, HLA-A2 molecules; assay: Stability of peptide-HLA-A2 complexes on T2 cells after brefeldin A; assay type: binding; details: peptide 25 μg/mL overnight with T2 cells, various time points
Experimental: FIG. 1A is a graph depicting the stability of HLA-A2/NGEP complexes for various peptides. The time post-treatment with brefeldin A (hours) is on the x-axis, and the percentage of remaining complexes is on the y-axis. Results are expressed in relative percentage of binding compared to 100% at time 0.
To determine the stability of peptide-MHC complexes, several of the identified peptides (at concentrations of 25 μg/mL) were incubated with T2 cells overnight. Unbound peptides were washed off, and delivery of new class 1 molecules to the cell surface was blocked by the addition of brefeldin A. Cells then were analyzed for the presence of peptide-HLA-A2 complexes at various time points, as indicated by the degree of mean fluorescence intensity. […] P703 peptide also was determined to bind T2 cells at higher levels at various peptide concentrations than the P215 peptide and the positive control (see FIG. 1B).

CD8+ T cells in PBMC = assay: Tetramer staining of PBMC from healthy donors and prostate cancer patients; assay type: cell-based, human; details: Patients 2, 3 and 4 of four, pre-vaccination
Experimental: To determine if prostate cancer patients recognized the NGEP-P703 epitope, PBMC from four patients with metastatic prostate cancer and from four healthy donors were analyzed for the presence of CD8^+ T cells reactive with the NGEP-P703 tetramer. T cells (5×10^5) were stained with 10 μl of PE-labeled NGEP-P703/HLA-A*0201 tetramer and anti-CD8 antibody.
These same four prostate cancer patients then were analyzed for tetramer binding after receiving six monthly cycles of a PSA-based vaccine (PSA/TRICOM).

Sequence	T2 Binding (HLA-A2 molecules [1])	further results
ALLSASWAV [Peptide P170, NGEP long form amino acids 170-178]	185 mean fluorescence intensity	–
FLDNIRAAGL [Peptide P143, NGEP short form amino acids 143-152]	203 mean fluorescence intensity	–
GLFDEYLEMV [Peptide P703, NGEP long form amino acids 703-712]	565 mean fluorescence intensity	Binding to T2 cells at various peptide concentrations (FIG. 1B) (HLA-A2 molecules [1]; compared with P215 peptide and positive control): higher levels; Stability of peptide-HLA-A2 complexes (FIG. 1A) (HLA-A2 molecules [2]): most stable complexes; Frequency of NGEP-P703 specific CD8+ T cells, prostate cancer patients versus healthy donors (CD8+ T cells in PBMC): higher frequency
GLGGPPLPTL [Peptide P10, NGEP short form amino acids 10-19]	212 mean fluorescence intensity	–
HLFGYSWYK [CAP-7, reference compound]	88.0 mean fluorescence intensity	–
ILFEILAKT [Peptide P258, NGEP long form amino acids 258-266]	280 mean fluorescence intensity	–
IVFEHVVFSV [Peptide P855, NGEP long form amino acids 855-864]	203 mean fluorescence intensity	–
LLAIRLWAV [Peptide P846, NGEP long form amino acids 846-854]	126 mean fluorescence intensity	–
LVWEEDLKL [Peptide P113, NGEP short form amino acids 113-121]	367 mean fluorescence intensity	–
SLSYTNPAV [MUC-1, reference compound]	452 mean fluorescence intensity	–
VLLEVVPDV [Peptide P215, NGEP long form amino acids 215-223]	464 mean fluorescence intensity	–
WLLPAAVVGT [Peptide P356, NGEP long form amino acids 356-365]	354 mean fluorescence intensity	–
